Experimental data published in paper PMC2938383 (Molecular Biology of the Cell, 2010).

Molecular target: the molecule itself
Test: SEC

B1: purified wild-type lipin1β (His6-tagged, baculovirus expressed) (enzyme, mouse, UniProt Q91ZP3 1-924, looked up)
chain: MNYVGQLAGQVFVTVKELYKGLNPATLSGCIDIIVIRQPNGSLQCSPFHVRFGKMGVLRSREKVVDIEINGESVDLHMKLGDNGEAFFVQETDNDQEIIPMYLATSPILSEGAARMESQLKRNSVDRIRCLDPTTAAQGLPPSDTPSTGSLGKKRRKRRRKAQLDNLKRDDNVNSSEDEDMFPIEMSSDEDTAPMDGSRTLPNDVPPFQDDIPKENFPSISTHPQSASYPSSDREWSPSPSSLVDCQRTPPHLAEGVLSSSCPLQSCHFHASESPSGSRPSTPKSDSELVSKSADRLTPKNNLEMLWLWGELPQAAKSSSPHKMKESSPLGSRKTPDKMNFQAIHSESSDTFSDQSPTMARGLLIHQSKAQTEMQFVNEEDLESLGAAAPPSPVAEELKAPYPNTAQSSSKTDSPSRKKDKRSRHLGADGVYLDDLTDMDPEVAALYFPKNGDPGGLPKQASDNGARSANQSPQSVGGSGIDSGVESTSDSLRDLPSIAISLCGGLSDHREITKDAFLEQAVSYQQFADNPAIIDDPNLVVKVGNKYYNWTTAAPLLLAMQAFQKPLPKATVESIMRDKMPKKGGRWWFSWRGRNATIKEESKPEQCLTGKGHNTGEQPAQLGLATRIKHESSSSDEEHAAAKPSGSSHLSLLSNVSYKKTLRLTSEQLKSLKLKNGPNDVVFSVTTQYQGTCRCEGTIYLWNWDDKVIISDIDGTITRSDTLGHILPTLGKDWTHQGIAKLYHKVSQNGYKFLYCSARAIGMADMTRGYLHWVNERGTVLPQGPLLLSPSSLFSALHREVIEKKPEKFKVQCLTDIKNLFFPNTEPFYAAFGNRPADVYSYKQVGVSLNRIFTVNPKGELVQEHAKTNISSYVRLCEVVDHVFPLLKRSHSCDFPCSDTFSNFTFWREPLPPFENQDMHSASA
  stoichiometry N: ~4
